# Data published in patent US20250099622A1, “COMPOSITIONS AND METHODS FOR EXPRESSING THERAPEUTICS” (priority 2022, published 2025).
# T1: NPR-B on NIH/3T3 cells (NPR-B receptor positive cell line) (UniProt Q6VVW5 17-1047, limits assumed)
# T1 sequence (looked up): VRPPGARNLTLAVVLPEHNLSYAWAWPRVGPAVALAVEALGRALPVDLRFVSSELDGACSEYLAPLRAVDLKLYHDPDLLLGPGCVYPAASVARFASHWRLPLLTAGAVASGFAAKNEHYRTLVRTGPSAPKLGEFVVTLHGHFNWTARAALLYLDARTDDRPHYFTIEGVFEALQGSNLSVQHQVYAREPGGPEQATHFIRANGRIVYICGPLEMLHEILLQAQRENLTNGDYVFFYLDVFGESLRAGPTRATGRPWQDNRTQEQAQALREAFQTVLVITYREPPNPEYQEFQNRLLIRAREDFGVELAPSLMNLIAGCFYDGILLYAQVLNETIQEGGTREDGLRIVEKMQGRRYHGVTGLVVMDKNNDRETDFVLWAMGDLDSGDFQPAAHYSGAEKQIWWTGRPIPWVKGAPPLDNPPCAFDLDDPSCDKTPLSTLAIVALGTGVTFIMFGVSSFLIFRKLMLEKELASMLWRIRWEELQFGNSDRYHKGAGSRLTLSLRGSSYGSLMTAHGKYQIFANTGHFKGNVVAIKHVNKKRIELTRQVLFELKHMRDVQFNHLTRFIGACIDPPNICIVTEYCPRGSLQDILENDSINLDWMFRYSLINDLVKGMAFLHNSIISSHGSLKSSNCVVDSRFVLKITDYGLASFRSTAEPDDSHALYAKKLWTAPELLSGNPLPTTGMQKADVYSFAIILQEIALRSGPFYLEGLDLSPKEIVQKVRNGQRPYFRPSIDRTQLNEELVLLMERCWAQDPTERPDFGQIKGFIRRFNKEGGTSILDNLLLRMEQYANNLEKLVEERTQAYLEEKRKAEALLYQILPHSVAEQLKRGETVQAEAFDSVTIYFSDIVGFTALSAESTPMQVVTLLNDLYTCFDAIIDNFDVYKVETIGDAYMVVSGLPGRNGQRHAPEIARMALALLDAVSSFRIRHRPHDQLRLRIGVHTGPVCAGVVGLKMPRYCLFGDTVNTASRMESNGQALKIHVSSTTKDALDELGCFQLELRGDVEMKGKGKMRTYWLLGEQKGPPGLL
# What was measured:
# [1] = test system: NIH3T3 cells (cGMP secreted); assay: EC50 for CNP-Fc constructs, cGMP ELISA of NIH3T3 supernatant; format: cell-based; settings: NIH3T3, 30 minutes, 1.8 mM IBMX, cGMP secreted by the cells; FIG. 25B
# Method: EC50 for CNP-Fc described herein were measured by ELISA. 2.5E+05 NIH3T3 cells/well were plated. […] After 30 minutes, supernatant was collected for cGMP determined via ELISA. FIG. 25A illustrates a standard curve of cGMP.
# [2] = molecular target: T1, NPR-B on NIH/3T3 cells (NPR-B receptor …); assay: cell-based or functional assay
"EC50 (cGMP production, drawn table, row ANP) [2] [nM]","EC50 (read off the curve), cGMP production [2] [nM]",Molecule,EC50 values (rank order) [1]
–,–,"AMI269: fusion protein Fc4-(G4S)4-CNP22, SEQ ID NO: 136",CNP-22 ≡Fc4-CNP36>Aflibercept-Fc4-CNP36>Fc1-CNP36>>Fc4-CNP22
112,~100,"SLRRSSCFGGRMDRIGAQSGLGCNSFRY (peptide, UniProt P01160 124-151, looked up) [ANP]",–
